{"source": "patent US20210032299A1", "about": "(Eli Lilly, published 2021)", "binders": {"B1": {"name": "Example 46 (peptide)", "peptide": "Y[Aib]EGTFISDYSI[αMeL]LDKK([AEEA-AEEA-γGlu-C20 diacid])HQ[Aib]DFVE[4Pal]LLEQGPSSGAPPPS-NH2", "modifications": "N-terminus assumed", "SMILES": "CC[C@H](C)[C@H](NC(=O)[C@H](Cc1ccccc1)NC(=O)[C@@H](NC(=O)CNC(=O)[C@H](CCC(=O)O)NC(=O)C(C)(C)NC(=O)[C@@H](N)Cc1ccc(O)cc1)[C@@H](C)O)C(=O)N[C@@H](CO)C(=O)N[C@@H](CC(=O)O)C(=O)N[C@@H](Cc1ccc(O)cc1)C(=O)N[C@@H](CO)C(=O)N[C@H](C(=O)N[C@@](C)(CC(C)C)C(=O)N[C@@H](CC(C)C)C(=O)N[C@@H](CC(=O)O)C(=O)N[C@@H](CCCCN)C(=O)N[C@@H](CCCCNC(=O)COCCOCCNC(=O)COCCOCCNC(=O)CC[C@H](NC(=O)CCCCCCCCCCCCCCCCCCC(=O)O)C(=O)O)C(=O)N[C@@H](Cc1c[nH]cn1)C(=O)N[C@@H](CCC(N)=O)C(=O)NC(C)(C)C(=O)N[C@@H](CC(=O)O)C(=O)N[C@@H](Cc1ccccc1)C(=O)N[C@H](C(=O)N[C@@H](CCC(=O)O)C(=O)N[C@@H](Cc1ccncc1)C(=O)N[C@@H](CC(C)C)C(=O)N[C@@H](CC(C)C)C(=O)N[C@@H](CCC(=O)O)C(=O)N[C@@H](CCC(N)=O)C(=O)NCC(=O)N1CCC[C@H]1C(=O)N[C@@H](CO)C(=O)N[C@@H](CO)C(=O)NCC(=O)N[C@@H](C)C(=O)N1CCC[C@H]1C(=O)N1CCC[C@H]1C(=O)N1CCC[C@H]1C(=O)N[C@@H](CO)C(N)=O)C(C)C)[C@@H](C)CC"}, "B2": {"name": "Example 47 (peptide)", "peptide": "Y[Aib]EGTFISDYSI[αMeL]LDKK([AEEA-AEEA-γGlu-C20 diacid])HQ[Aib]DFVE[4Pal]LLEGGPSSGAPPPS-NH2", "modifications": "N-terminus assumed", "SMILES": "CC[C@H](C)[C@H](NC(=O)[C@H](Cc1ccccc1)NC(=O)[C@@H](NC(=O)CNC(=O)[C@H](CCC(=O)O)NC(=O)C(C)(C)NC(=O)[C@@H](N)Cc1ccc(O)cc1)[C@@H](C)O)C(=O)N[C@@H](CO)C(=O)N[C@@H](CC(=O)O)C(=O)N[C@@H](Cc1ccc(O)cc1)C(=O)N[C@@H](CO)C(=O)N[C@H](C(=O)N[C@@](C)(CC(C)C)C(=O)N[C@@H](CC(C)C)C(=O)N[C@@H](CC(=O)O)C(=O)N[C@@H](CCCCN)C(=O)N[C@@H](CCCCNC(=O)COCCOCCNC(=O)COCCOCCNC(=O)CC[C@H](NC(=O)CCCCCCCCCCCCCCCCCCC(=O)O)C(=O)O)C(=O)N[C@@H](Cc1c[nH]cn1)C(=O)N[C@@H](CCC(N)=O)C(=O)NC(C)(C)C(=O)N[C@@H](CC(=O)O)C(=O)N[C@@H](Cc1ccccc1)C(=O)N[C@H](C(=O)N[C@@H](CCC(=O)O)C(=O)N[C@@H](Cc1ccncc1)C(=O)N[C@@H](CC(C)C)C(=O)N[C@@H](CC(C)C)C(=O)N[C@@H](CCC(=O)O)C(=O)NCC(=O)NCC(=O)N1CCC[C@H]1C(=O)N[C@@H](CO)C(=O)N[C@@H](CO)C(=O)NCC(=O)N[C@@H](C)C(=O)N1CCC[C@H]1C(=O)N1CCC[C@H]1C(=O)N1CCC[C@H]1C(=O)N[C@@H](CO)C(N)=O)C(C)C)[C@@H](C)CC"}, "B3": {"name": "Example 57 (peptide)", "peptide": "Y[Aib]EGTFISDYSI[αMeL]LDKK([AEEA-AEEA-γGlu-C20 diacid])HQ[Aib]EFVE[4Pal]LLAQGPSSGAPPPS-NH2", "modifications": "N-terminus assumed", "SMILES": "CC[C@H](C)[C@H](NC(=O)[C@H](Cc1ccccc1)NC(=O)[C@@H](NC(=O)CNC(=O)[C@H](CCC(=O)O)NC(=O)C(C)(C)NC(=O)[C@@H](N)Cc1ccc(O)cc1)[C@@H](C)O)C(=O)N[C@@H](CO)C(=O)N[C@@H](CC(=O)O)C(=O)N[C@@H](Cc1ccc(O)cc1)C(=O)N[C@@H](CO)C(=O)N[C@H](C(=O)N[C@@](C)(CC(C)C)C(=O)N[C@@H](CC(C)C)C(=O)N[C@@H](CC(=O)O)C(=O)N[C@@H](CCCCN)C(=O)N[C@@H](CCCCNC(=O)COCCOCCNC(=O)COCCOCCNC(=O)CC[C@H](NC(=O)CCCCCCCCCCCCCCCCCCC(=O)O)C(=O)O)C(=O)N[C@@H](Cc1c[nH]cn1)C(=O)N[C@@H](CCC(N)=O)C(=O)NC(C)(C)C(=O)N[C@@H](CCC(=O)O)C(=O)N[C@@H](Cc1ccccc1)C(=O)N[C@H](C(=O)N[C@@H](CCC(=O)O)C(=O)N[C@@H](Cc1ccncc1)C(=O)N[C@@H](CC(C)C)C(=O)N[C@@H](CC(C)C)C(=O)N[C@@H](C)C(=O)N[C@@H](CCC(N)=O)C(=O)NCC(=O)N1CCC[C@H]1C(=O)N[C@@H](CO)C(=O)N[C@@H](CO)C(=O)NCC(=O)N[C@@H](C)C(=O)N1CCC[C@H]1C(=O)N1CCC[C@H]1C(=O)N1CCC[C@H]1C(=O)N[C@@H](CO)C(N)=O)C(C)C)[C@@H](C)CC"}, "B4": {"name": "Example 58 (peptide)", "peptide": "Y[Aib]EGTFISDYSI[αMeL]LDKK([AEEA-AEEA-γGlu-C20 diacid])HQ[Aib]EFVE[4Pal]LLATGPSSGAPPPS-NH2", "modifications": "N-terminus assumed", "SMILES": "CC[C@H](C)[C@H](NC(=O)[C@H](Cc1ccccc1)NC(=O)[C@@H](NC(=O)CNC(=O)[C@H](CCC(=O)O)NC(=O)C(C)(C)NC(=O)[C@@H](N)Cc1ccc(O)cc1)[C@@H](C)O)C(=O)N[C@@H](CO)C(=O)N[C@@H](CC(=O)O)C(=O)N[C@@H](Cc1ccc(O)cc1)C(=O)N[C@@H](CO)C(=O)N[C@H](C(=O)N[C@@](C)(CC(C)C)C(=O)N[C@@H](CC(C)C)C(=O)N[C@@H](CC(=O)O)C(=O)N[C@@H](CCCCN)C(=O)N[C@@H](CCCCNC(=O)COCCOCCNC(=O)COCCOCCNC(=O)CC[C@H](NC(=O)CCCCCCCCCCCCCCCCCCC(=O)O)C(=O)O)C(=O)N[C@@H](Cc1c[nH]cn1)C(=O)N[C@@H](CCC(N)=O)C(=O)NC(C)(C)C(=O)N[C@@H](CCC(=O)O)C(=O)N[C@@H](Cc1ccccc1)C(=O)N[C@H](C(=O)N[C@@H](CCC(=O)O)C(=O)N[C@@H](Cc1ccncc1)C(=O)N[C@@H](CC(C)C)C(=O)N[C@@H](CC(C)C)C(=O)N[C@@H](C)C(=O)N[C@H](C(=O)NCC(=O)N1CCC[C@H]1C(=O)N[C@@H](CO)C(=O)N[C@@H](CO)C(=O)NCC(=O)N[C@@H](C)C(=O)N1CCC[C@H]1C(=O)N1CCC[C@H]1C(=O)N1CCC[C@H]1C(=O)N[C@@H](CO)C(N)=O)[C@@H](C)O)C(C)C)[C@@H](C)CC"}, "B5": {"name": "Example 52 (peptide)", "peptide": "Y[Aib]EGTFISDYSI[αMeL]LDKK([AEEA-AEEA-γGlu-C20 diacid])HQ[Aib]EFVE[4Pal]LLAGGPSSGAPPPS-NH2", "modifications": "N-terminus assumed", "SMILES": "CC[C@H](C)[C@H](NC(=O)[C@H](Cc1ccccc1)NC(=O)[C@@H](NC(=O)CNC(=O)[C@H](CCC(=O)O)NC(=O)C(C)(C)NC(=O)[C@@H](N)Cc1ccc(O)cc1)[C@@H](C)O)C(=O)N[C@@H](CO)C(=O)N[C@@H](CC(=O)O)C(=O)N[C@@H](Cc1ccc(O)cc1)C(=O)N[C@@H](CO)C(=O)N[C@H](C(=O)N[C@@](C)(CC(C)C)C(=O)N[C@@H](CC(C)C)C(=O)N[C@@H](CC(=O)O)C(=O)N[C@@H](CCCCN)C(=O)N[C@@H](CCCCNC(=O)COCCOCCNC(=O)COCCOCCNC(=O)CC[C@H](NC(=O)CCCCCCCCCCCCCCCCCCC(=O)O)C(=O)O)C(=O)N[C@@H](Cc1c[nH]cn1)C(=O)N[C@@H](CCC(N)=O)C(=O)NC(C)(C)C(=O)N[C@@H](CCC(=O)O)C(=O)N[C@@H](Cc1ccccc1)C(=O)N[C@H](C(=O)N[C@@H](CCC(=O)O)C(=O)N[C@@H](Cc1ccncc1)C(=O)N[C@@H](CC(C)C)C(=O)N[C@@H](CC(C)C)C(=O)N[C@@H](C)C(=O)NCC(=O)NCC(=O)N1CCC[C@H]1C(=O)N[C@@H](CO)C(=O)N[C@@H](CO)C(=O)NCC(=O)N[C@@H](C)C(=O)N1CCC[C@H]1C(=O)N1CCC[C@H]1C(=O)N1CCC[C@H]1C(=O)N[C@@H](CO)C(N)=O)C(C)C)[C@@H](C)CC"}}, "key": {"human glucagon receptor": {"target": "T1, human glucagon receptor (human, UniProt P47871 26-477)", "T1 construct": "whole, on cells; Assayed as crude membranes of stably transfected HEK293 cells; also called hGcgR; GcgR", "T1 sequence (P47871 26-477)": "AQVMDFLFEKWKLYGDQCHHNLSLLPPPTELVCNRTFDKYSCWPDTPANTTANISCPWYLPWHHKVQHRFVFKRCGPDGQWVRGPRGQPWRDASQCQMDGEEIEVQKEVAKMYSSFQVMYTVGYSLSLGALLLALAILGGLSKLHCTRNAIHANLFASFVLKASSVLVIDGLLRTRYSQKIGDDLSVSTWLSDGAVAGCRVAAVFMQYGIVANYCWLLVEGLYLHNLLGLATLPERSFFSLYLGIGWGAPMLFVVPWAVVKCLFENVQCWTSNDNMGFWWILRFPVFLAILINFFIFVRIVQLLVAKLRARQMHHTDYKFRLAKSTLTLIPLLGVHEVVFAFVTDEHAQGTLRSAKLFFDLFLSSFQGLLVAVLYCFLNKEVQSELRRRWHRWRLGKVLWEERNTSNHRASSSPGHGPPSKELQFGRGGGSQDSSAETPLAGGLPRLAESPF", "assay": "SPA, displacement of [125I]-Gcg from hGcgR membranes, 0.1% bacitracin", "method": "The binding buffer contains 25 mM 4-(2-hydroxyethyl)-1-piperazineethanesulfonic acid (HEPES), pH 7.4, 2.5 mM CaCl₂), 1 mM MgCl₂, 0.1% (w/v) bacitracin (Research Products), 0.003% (w/v) Polyoxyethylenesorbitan monolaurate (TWEEN®-20), and Roche Complete™ Protease Inhibitors without EDTA. […] Plates are sealed and mixed on a plate shaker (setting 6) for 1 minute and read with a PerkinElmer Trilux MicroBeta® scintillation counter after 12 hours of incubation/settling time at room temperature.\nData are analyzed using four-parameter (curve maximum, curve minimum, […], Hill slope) nonlinear regression routines (Genedata Screener, version 12.0.4, Genedata AG, Basal, Switzerland). […] Values for Kᵢ are reported as the geometric mean, with error expressed as the standard error of the mean (SEM) and n is equal to the number of independent replicates (determined in assays performed on different days)."}, "[1]": {"target": "T2, human glucose-dependent insulinotropic polypeptide (GIP) receptor (human, UniProt P48546 22-466)", "T2 construct": "whole, on cells; Assayed as crude membranes of stably transfected CHO cells; also called hGIPR; human GIP receptor", "T2 sequence (looked up)": "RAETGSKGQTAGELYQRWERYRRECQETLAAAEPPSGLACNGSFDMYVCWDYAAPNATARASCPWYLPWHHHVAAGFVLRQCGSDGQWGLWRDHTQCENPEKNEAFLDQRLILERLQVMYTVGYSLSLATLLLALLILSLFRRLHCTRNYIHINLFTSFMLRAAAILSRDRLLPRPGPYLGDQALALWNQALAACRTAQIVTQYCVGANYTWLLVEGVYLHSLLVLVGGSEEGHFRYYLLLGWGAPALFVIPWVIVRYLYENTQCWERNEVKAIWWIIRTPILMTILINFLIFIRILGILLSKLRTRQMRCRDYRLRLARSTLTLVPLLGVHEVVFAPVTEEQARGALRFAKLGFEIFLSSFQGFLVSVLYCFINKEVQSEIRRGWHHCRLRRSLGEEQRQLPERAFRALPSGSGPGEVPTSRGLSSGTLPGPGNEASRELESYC", "assay": "SPA, displacement of [125I]-GIP from hGIPR membranes, 0.1% bacitracin"}, "human GLP-1 receptor": {"target": "T3, human GLP-1 receptor (human, UniProt P43220 24-463)", "T3 construct": "whole, on cells; Assayed as crude membranes of stably transfected HEK293 cells; also called hGLP1R; hGLP-1R", "assay": "SPA, displacement of [125I]-GLP-1 from hGLP-1R membranes, 0.1% bacitracin", "in_short": "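Binding buffer: 25 mM HEPES pH 7.4, 2.5 mM CaCl₂, 1 mM MgCl₂, 0.1% bacitracin, 0.003% Tween-20, protease inhibitors without EDTA. Four-parameter nonlinear regression; Kᵢ given as geometric mean ± SEM, n = independent replicates run on different days.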"}}, "note": "Starred links: 1 amine or outer side, 2 acyl side, 3 side chain; linkers in the order of their positions; H or OH if unused. Non-standard residues stand in square brackets, D forms with d. Groups on a side chain read outwards from the residue. No end group written: not given here. *: point of attachment. C20 diacid = O=C(O)CCCCCCCCCCCCCCCCCCC(=O)*; γGlu = O=C(O)[C@H](CCC(=O)[*:2])N[*:1]; 4Pal = N[C@@H](Cc1ccncc1)C(=O)O; αMeL = CC(C)C[C@](C)(N)C(=O)O; AEEA = NCCOCCOCC(=O)O; Aib = CC(C)(N)C(=O)O", "data": [{"binder": "B1", "values": [{"measurement": "Ki", "setting": "human glucagon receptor", "result": 435, "unit": "nM"}, {"measurement": "Ki", "setting": "[1]", "result": 0.0319, "unit": "nM"}, {"measurement": "Ki", "setting": "human GLP-1 receptor", "result": 744, "unit": "nM"}]}, {"binder": "B2", "values": [{"measurement": "Ki", "setting": "human glucagon receptor", "result": 175, "unit": "nM"}, {"measurement": "Ki", "setting": "[1]", "result": 0.0452, "unit": "nM"}, {"measurement": "Ki", "setting": "human GLP-1 receptor", "result": 320, "unit": "nM"}]}, {"binder": "B3", "values": [{"measurement": "Ki", "setting": "human glucagon receptor", "result": 422, "unit": "nM"}, {"measurement": "Ki", "setting": "[1]", "result": 0.0154, "unit": "nM"}, {"measurement": "Ki", "setting": "human GLP-1 receptor", "result": 280, "unit": "nM"}]}, {"binder": "B4", "values": [{"measurement": "Ki", "setting": "human glucagon receptor", "result": 418, "unit": "nM"}, {"measurement": "Ki", "setting": "[1]", "result": 0.0324, "unit": "nM"}, {"measurement": "Ki", "setting": "human GLP-1 receptor", "result": 459, "unit": "nM"}]}, {"binder": "B5", "values": [{"measurement": "Ki", "setting": "human glucagon receptor", "result": 114, "unit": "nM"}, {"measurement": "Ki", "setting": "[1]", "result": 0.0372, "unit": "nM"}, {"measurement": "Ki", "setting": "human GLP-1 receptor", "result": 128, "unit": "nM"}]}]}
